Experimental data from the supplement of paper PMC10724198.
± gives the standard deviation of the averaged measurements.

Tests used:
Saccharomyces cerevisiae [1] = test: protein stability index of tFT-peptide fusion (C-terminal peptide) (PSI (0-1 scale)); higher = more stable (slower turnover)
Protocol: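 MPS profiling in S. cerevisiae of the tFT-X12 degron library: putative degron peptides plus stable controls, 12 aa, fused to the C-terminus of a sfGFP-mCherry timer. Cells are FACS-sorted into 8 mCherry/sfGFP bins and deep-sequenced. PSI runs from 0 (unstable) to 1 (stable). Backgrounds are wild type, das1Δ and doa10Δ at 30 °C, and wild type, das1Δ, cdc34-1 and cdc53-1 at 37 °C; 2-3 technical replicates each.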

Saccharomyces cerevisiae [2] = test: as above; details: genetic background: wild type; temperature: 30 C
[3] = genetic background: cdc34-1, temperature: 37 C
[4] = genetic background: cdc53-1, temperature: 37 C
[5] = genetic background: das1 deletion, temperature: 30 C
[6] = genetic background: das1 deletion, temperature: 37 C
[7] = genetic background: doa10 deletion, temperature: 30 C
[8] = genetic background: wild type, temperature: 30 C
[9] = genetic background: wild type, temperature: 37 C
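Also: PSI is a weighted mean of sequencing reads over stability bins, variants kept only with over 10 reads, mCherry proximal and sfGFP distal, peptide attached via GGGS linker.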

Sequence | protein stability index (Saccharomyces cerevisiae [1]; [3]) | protein stability index (Saccharomyces cerevisiae [1]; [4]) | protein stability index (Saccharomyces cerevisiae [1]; [5]) | protein stability index (Saccharomyces cerevisiae [1]; [6]) | protein stability index (Saccharomyces cerevisiae [1]; [7]) | protein stability index (Saccharomyces cerevisiae [1]; [8]) | protein stability index (Saccharomyces cerevisiae [1]; [9]) | protein stability index (Saccharomyces cerevisiae [2])
WSISFGLLVCWV | 0.27 ± 0.045 | 0.322 ± 0.0049 | 0.199 ± 0.019 | 0.42 ± 0.013 | 0.154 ± 0.012 | 0.191 ± 0.016 | 0.379 ± 0.066 | 0.233 ± 0.039
WVFVVWFVFVVG | 0.242 ± 0.022 | 0.3112 ± 0.00051 | 0.241 ± 0.022 | 0.374 ± 0.021 | 0.202 ± 0.013 | 0.215 ± 0.02 | 0.356 ± 0.03 | 0.322 ± 0.016
WVGGVLLSVVGG | 0.158 ± 0.014 | 0.413 ± 0.041 | 0.213 ± 0.028 | 0.349 ± 0.0084 | 0.179 ± 0.01 | 0.192 ± 0.029 | 0.399 ± 0.059 | 0.245 ± 0.014
WVRLGRSWTTVG | 0.68 ± 0.054 | 0.736 ± 0.013 | 0.686 ± 0.035 | 0.754 ± 0.013 | 0.22 ± 0.034 | 0.283 ± 0.016 | 0.549 ± 0.0057 | 0.422 ± 0.029
WVRLWGVLEAQG | 0.349 ± 0.013 | 0.445 ± 0.022 | 0.334 ± 0.028 | 0.369 ± 0.0011 | 0.344 ± 0.028 | 0.332 ± 0.012 | 0.3675 ± 0.0028 | 0.3627 ± 0.0029
WVSFYLLFFFSF | 0.459 ± 0.007 | 0.4959 ± 0.0028 | 0.42 ± 0.044 | 0.539 ± 0.015 | 0.395 ± 0.0067 | 0.395 ± 0.017 | 0.5 ± 0.015 | 0.483 ± 0.023
YFFFPILCFCFF | 0.439 ± 0.03 | 0.43 ± 0.012 | 0.38 ± 0.028 | 0.479 ± 0.0088 | 0.429 ± 0.028 | 0.381 ± 0.018 | 0.437 ± 0.0084 | 0.419 ± 0.047
YFLFLRLVFLFF | 0.217 ± 0.015 | 0.222 ± 0.032 | 0.233 ± 0.018 | 0.3874 ± 0.0034 | 0.186 ± 0.013 | 0.178 ± 0.018 | 0.257 ± 0.0034 | 0.23 ± 0.032
YILLRWVNLSCL | 0.524 ± 0.012 | 0.587 ± 0.013 | 0.488 ± 0.022 | 0.645 ± 0.0099 | 0.149 ± 0.017 | 0.156 ± 0.021 | 0.283 ± 0.0069 | 0.236 ± 0.062
YPVAWSSAIIIR | 0.438 ± 0.041 | 0.4531 ± 0.0036 | 0.362 ± 0.022 | 0.5314 ± 0.0037 | 0.423 ± 0.018 | 0.371 ± 0.017 | 0.506 ± 0.0061 | 0.435 ± 0.025
YQKIARVSLAVS | 0.466 ± 0.015 | 0.512 ± 0.02 | 0.347 ± 0.038 | 0.526 ± 0.014 | 0.27 ± 0.021 | 0.328 ± 0.025 | 0.4779 ± 0.0035 | 0.424 ± 0.015
YVIGLLFVVSGV | 0.265 ± 0.013 | 0.366 ± 0.025 | 0.258 ± 0.044 | 0.465 ± 0.029 | 0.229 ± 0.0076 | 0.251 ± 0.033 | 0.385 ± 0.03 | 0.39 ± 0.0085
YYKGGYLYLRLS | 0.398 ± 0.031 | 0.4395 ± 0.0037 | 0.454 ± 0.029 | 0.607 ± 0.035 | 0.171 ± 0.0093 | 0.15 ± 0.018 | 0.316 ± 0.036 | 0.253 ± 0.015
